Reference: patent publication US20240209341A1 (University of California, published 2024)

Columns and labels:
[1] = target: T1, recombinant TLR4 ectodomain, His-tagged (Sino Biological) (human, UniProt O00206 24-631); experiment: pull-down with BE-1 anti-AIBP antibody, immunoblot
T1 construct: extracellular domain; Bought protein; also called eTLR4; eTLR4-His; not shown: His-tag
Protocol: (§1) Co-immunoprecipitation assays for TLR4 binding. Pull down assay of eTLR4 and wtAIBP or mutAIBP in test tube was performed by mixing 1 μg of eTLR4 (Sino Biological) and AIBP in PBS containing 0.5% Triton X-100 and incubating for 1 hour at room temperature. Samples were precleared by adding Protein A/G Sepharose beads at room temperature for 30 min, followed by addition of 1 μg of BE-1 monoclonal anti-AIBP antibody and incubation for 2 hours. Protein A/G Sepharose beads were added and incubated for an additional one hour, followed by 5 washes with PBS containing 0.5% Triton X-100 and immunoblot of samples.
FIG. 9: Identifies sequence motifs that contribute to AIBP binding to TLR4: FIG. 9. Identification of the domain in the AIBP molecule responsible for TLR4 binding. A, Human AIBP: signal peptide (aa 1-24), previously uncharacterized N-terminal domain (aa 25-51), and YjeF_N domain (aa 52-288). B, Flag-tagged deletion mutants of human AIBP were co-expressed in HEK293 cells with the Flag-tagged TLR4 ectodomain (eTLR4). Cell lysates were immunoprecipitated (IP) with an anti-TLR4 antibody and immunoblotted (IB) with an anti-Flag antibody. […] IP of eTLR4 and wtAIBP or mutAIBP in a test tube with an anti-AIBP antibody; blot and quantification from 3 independent experiments (D). […]

[2] = target: T2, human APOA1 (human, UniProt P02647 25-267); experiment: ELISA, AIBP-coated plates incubated with 5 µg/ml human APOA1
T2 construct: also called ApoA-I
T2 sequence (P02647 25-267 limits assumed): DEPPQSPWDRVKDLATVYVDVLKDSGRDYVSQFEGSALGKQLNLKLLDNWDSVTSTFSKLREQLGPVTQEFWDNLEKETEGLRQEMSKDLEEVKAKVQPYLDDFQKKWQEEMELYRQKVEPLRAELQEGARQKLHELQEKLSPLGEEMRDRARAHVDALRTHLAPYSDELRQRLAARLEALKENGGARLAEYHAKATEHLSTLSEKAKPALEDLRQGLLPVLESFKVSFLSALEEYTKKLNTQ
Protocol: ELISA binding assays. To assess AIBP-TLR4 binding, 96-well plates were coated with 5 μg/ml of eTLR4, washed three times with PBS containing 0.05% Tween-20, blocked with PBS containing 1% BSA, and incubated with wtAIBP or mutAIBP, followed by 2 μg/ml of a biotinylated BE-1 anti-AIBP monoclonal antibody. To assess AIBP-APOA1 binding, plates were coated with BSA, wtAIBP or mutAIBP, washed, blocked, and incubated with 5 μg/ml of human APOA1 (a gift from Dmitri Sviridov, Baker Heart and Diabetes Institute, Melbourne, Australia), followed by a biotinylated anti-APOA1 antibody (Academy Bio-Medical Company, RRID:AB_1238781). In both assays, neutravidin-AP was added and incubated for 45 minutes at room temperature, followed by LumiPhos 530 (Lumigen) for 90 min, and luminescence was measured using a luminescence plate reader (BioTek, Winooski, Vermont).
FIG. 9: Identifies sequence motifs that contribute to AIBP binding to TLR4: FIG. 9. Identification of the domain in the AIBP molecule responsible for TLR4 binding. A, Human AIBP: signal peptide (aa 1-24), previously uncharacterized N-terminal domain (aa 25-51), and YjeF_N domain (aa 52-288). […] IP of eTLR4 and wtAIBP or mutAIBP in a test tube with an anti-AIBP antibody; blot and quantification from 3 independent experiments (D). […]

[3] = target: T1, recombinant TLR4 ectodomain, His-tagged …; experiment: co-immunoprecipitation with recombinant ectodomain of TLR4; proteins from E. coli
[4] = target: T1, recombinant TLR4 ectodomain, His-tagged …; experiment: test-tube co-IP with anti-TLR4 antibody, immunoblot with anti-His antibody
Excerpt: FIG. 9: Identifies sequence motifs that contribute to AIBP binding to TLR4: FIG. 9. Identification of the domain in the AIBP molecule responsible for TLR4 binding. A, Human AIBP: signal peptide (aa 1-24), previously uncharacterized N-terminal domain (aa 25-51), and YjeF_N domain (aa 52-288). B, Flag-tagged deletion mutants of human AIBP were co-expressed in HEK293 cells with the Flag-tagged TLR4 ectodomain (eTLR4). Cell lysates were immunoprecipitated (IP) with an anti-TLR4 antibody and immunoblotted (IB) with an anti-Flag antibody. C, His-tagged human (hu), mouse (mo) and zebrafish (zf) AIBP, all lacking the signal peptide, expressed in a baculovirus/insect cell system, were combined in a test-tube with eTLR4-His, followed by IP with an anti-TLR4 antibody and IB with an anti-His antibody. D-H, Binding of His-tagged wild type (wt, 25-288 aa) and the deletion mutant (mut, 52-288 aa) human AIBP to eTLR4, APOA1 and microglia. IP of eTLR4 and wtAIBP or mutAIBP in a test tube with an anti-AIBP antibody; blot and quantification from 3 independent experiments (D). ELISA with plates coated with eTLR4 and incubated with wtAIBP or mutAIBP (n=3) (E). ELISA with plates coated with BSA, wtAIBP or mutAIBP and incubated with APOA1 (F). […]

[5] = target: T1, recombinant TLR4 ectodomain, His-tagged …; experiment: pull-down with anti-AIBP antibody, western blot with anti-his antibody
Protocol: as §1
A pulldown assay was performed using compounds as provided herein. Compounds 3, 7, 8 or 9 and other constructs described in FIGS. 13 and 14 were purified from either a baculovirus (BD Bioscience) or CHO (ExpiCHO, Expression Systems, ThermoFisher) cell expression system and incubated with TLR4 protein (Sino biological). Pull-down was performed with anti-AIBP antibody described. Bound TLR4 to AIBP was detected by western blot with an anti-his antibody (both modified AIBP and TLR4 have his-tag). Detailed experimental information is provided in example 1 as to pull down method.

T1 sequence (O00206 24-631): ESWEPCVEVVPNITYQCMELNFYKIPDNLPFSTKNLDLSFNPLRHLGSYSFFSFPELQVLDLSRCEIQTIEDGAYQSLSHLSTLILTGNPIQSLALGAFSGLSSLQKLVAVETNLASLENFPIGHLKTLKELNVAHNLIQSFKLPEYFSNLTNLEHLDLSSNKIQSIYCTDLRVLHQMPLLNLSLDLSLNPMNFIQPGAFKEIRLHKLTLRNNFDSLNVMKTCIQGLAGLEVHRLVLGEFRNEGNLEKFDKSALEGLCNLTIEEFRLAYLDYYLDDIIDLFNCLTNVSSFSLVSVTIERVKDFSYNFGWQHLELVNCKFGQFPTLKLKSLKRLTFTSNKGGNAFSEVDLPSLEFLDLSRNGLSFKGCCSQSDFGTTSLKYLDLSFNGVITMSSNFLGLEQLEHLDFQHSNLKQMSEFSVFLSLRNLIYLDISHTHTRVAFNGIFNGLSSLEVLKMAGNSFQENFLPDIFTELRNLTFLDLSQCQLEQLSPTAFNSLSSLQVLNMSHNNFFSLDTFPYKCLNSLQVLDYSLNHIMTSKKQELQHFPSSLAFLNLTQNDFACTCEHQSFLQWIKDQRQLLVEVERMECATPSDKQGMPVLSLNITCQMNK

B1: His-tagged deletion mutant (mut, 52-288 aa) human AIBP (other)
chain: MASTVVKYLSQEEAQAVDQELFNEYQFSVDQLMELAGLSCATAIAKAYPPTSMSRSPPTVLVICGPGNNGGDGLVCARHLKLFGYEPTIYYPKRPNKPLFTALVTQCQKMDIPFLGEMPAEPMTIDELYELVVDAIFGFSFKGDVREPFHSILSVLKGLTVPIASIDIPSGWDVEKGNAGGIQPDLLISLTAPKKSATQFTGRYHYLGGRFVPPALEKKYQLNLPPYPDTECVYRLQ
notes: Baculovirus/insect cell expression, pAcHLT-C vector; also called mutAIBP; mut AIBP; not shown: N-terminal His-tag of the pAcHLT-C vector
B1: no binding [1]; binds [2].

B2: d51 AIBP-his (expressed in E. coli) (other)
chain: B1 chain
notes: not shown: his tag, read from the name as C-terminal
B2: no binding [3].

B3: His-tagged zebrafish (zf) AIBP lacking the signal peptide (other, UniProt Q6DHK1 29-283, looked up)
chain: SSAASNIYSKHLTHRPTCTMANTGVKYLGQEEAQQIDEELFSDFSFSVDQLMELAGLSCATAVAKGYPVTSLLKSPARVLVICGPGNNGGDGLVCARHLKLFGYEPSVLYPKRPNKQLFQNLSIQCQKMEIPFLTEMPEADLIDEAYSLVVDAIFGFSFKGAVREPFGEILSQLKKITVPIASVDIPSGWDVEKGCPDGIQPDMLISLTAPKKSAALFKGRFHFLGGRFVPPVLEQKYQLNLPQYPGTECVFQLN
notes: mature; also called zebrafish wild type AIBP; not shown: N-terminal His-tag of the pAcHLT-C vector
B3: no binding [4].

B4: cleaved His-d24 AIBP (other)
chain: GSPGLDGICSRQTIACRSGPTWWGPQRLNSGGRWDSEVMASTVVKYLSQEEAQAVDQELFNEYQFSVDQLMELAGLSCATAIAKAYPPTSMSRSPPTVLVICGPGNNGGDGLVCARHLKLFGYEPTIYYPKRPNKPLFTALVTQCQKMDIPFLGEMPAEPMTIDELYELVVDAIFGFSFKGDVREPFHSILSVLKGLTVPIASIDIPSGWDVEKGNAGGIQPDLLISLTAPKKSATQFTGRYHYLGGRFVPPALEKKYQLNLPPYPDTECVYRLQ
notes: also called putative cleavage product of His-d24 AIBP
B4: no binding [5].
